In patent US10118947B2, “Modulation of structured polypeptide specificity” (BICYCLE THERAPEUTICS LIMITED, priority 2013, dated 2018) one finds FREQUENCY data, which are given here for 21 sequences.

T1 sequence (P03952 20-638): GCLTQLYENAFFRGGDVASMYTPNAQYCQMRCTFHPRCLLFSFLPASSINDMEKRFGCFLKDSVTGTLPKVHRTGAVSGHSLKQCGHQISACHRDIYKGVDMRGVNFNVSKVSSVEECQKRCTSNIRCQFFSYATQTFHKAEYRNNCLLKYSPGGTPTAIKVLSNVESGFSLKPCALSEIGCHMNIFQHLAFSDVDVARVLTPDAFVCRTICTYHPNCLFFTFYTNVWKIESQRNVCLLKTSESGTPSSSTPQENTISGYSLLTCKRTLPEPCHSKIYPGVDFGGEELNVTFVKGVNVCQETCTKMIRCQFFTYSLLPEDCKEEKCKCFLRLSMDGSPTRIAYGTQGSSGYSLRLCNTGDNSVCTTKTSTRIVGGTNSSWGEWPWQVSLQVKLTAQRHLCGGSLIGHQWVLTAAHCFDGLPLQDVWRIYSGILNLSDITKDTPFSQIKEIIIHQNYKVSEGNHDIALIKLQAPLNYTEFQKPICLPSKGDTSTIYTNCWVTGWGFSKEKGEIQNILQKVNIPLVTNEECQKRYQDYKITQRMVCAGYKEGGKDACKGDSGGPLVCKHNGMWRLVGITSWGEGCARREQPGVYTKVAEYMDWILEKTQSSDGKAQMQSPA

This assay has as its target T1, human plasma Kallikrein (Homo sapiens, UniProt P03952).
T1 construct: purchased Stratech, UK
Nature of the assay: Phage selections against human plasma Kallikrein (abundance in selection output). The assay is classed as binding. To be noted: Table 17; relative abundance in the total selection outputs. How it is done:
Glycerol stocks of phage libraries were diluted to OD600=0.1 in 500 ml 2YT/chloramphenicol (30 μg/ml) cultures and phage were produced at 30° C. over night (15-16 hrs). Phage were purified and chemically modified as described in Heinis, et al., Nat Chem Biol 2009, 5 (7), 502-7 Biotinylated hPK (3 μg) (IHPKA, from human plasma, Innovative Research, Novi, Mich., USA) was incubated with 50 μl pre-washed magnetic streptavidin beads (Dynal, M-280 from Invitrogen, Paisley, UK) for 10 minutes at RT. Beads were washed 3 times prior to blocking with 0.5 ml washing buffer (10 mM Tris-Cl, pH 7.4, 150 mM NaCl, 10 mM MgCl2, 1 mM CaCl2) containing 1% BSA and 0.1% Tween 20 for 30 minutes at RT with rotation. […] Blocked beads were then mixed with the blocked chemically modified phage and incubated for 30 minutes on a rotating wheel at
RT. Beads were washed 8 times with washing buffer containing 0.1% Tween 20 and twice with washing buffer before incubation with 100 μl of 50 mM glycine, pH 2.2 for 5 minutes. Eluted phage were transferred to 50 μl of 1 M Tris-Cl, pH 8 for neutralization, incubated with 30 ml TG1 cells at OD600=0.4 for 90 minutes at 37° C. and the cells were plated on large 2YT/chloramphenicol plates. One or two additional rounds of panning were performed using the same procedures. In the second round of selection, neutravidin-coated magnetic beads were used to prevent the enrichment of streptavidin-specific peptides. The neutravidin beads were prepared by reacting 0.8 mg neutravidin (Pierce, Rockford, Ill., USA) with 0.5 ml tosyl-activated magnetic beads (Dynal, M-280 from Invitrogen, Paisley, UK) according to the supplier's instructions.
The WPAR (SEQ ID No. 19) motif identified from Example 1 was analysed in the context of the 06-34-03 peptide, in order to identify alternatives or improvements to the WPAR motif. A library was constructed where positions 1, 6, 7, 8, 9 &10 of 06-34-03 were fixed and positions 2, 3, 4 & 5 were randomised (see ‘Randomisation of peptide domains—Library construction’ in Methods above). Selections against human plasma Kallikrein were performed at a variety of stringencies (see Phage selections' in Methods above). All output sequences were identified and analysed for target binding (see ‘Randomisation of peptide domains—Assay of binding of individual clones’ in Methods above). Table 17 lists each unique sequence, its relative abundance in the selection output (frequency), and a rank number according to target binding strength.
Sequence CSFPYKCTHQDLC registered an FREQUENCY of 1.

Sequence CSWPYRCTHQDLC yielded an FREQUENCY of 3.

CSFPFWCTHQDLC yielded an FREQUENCY of 1.

With CSFPYRCTHQDLC, the FREQUENCY came to 12.

As to CSFLYKCTHQDLC, the FREQUENCY is 2.

Take CSIPFKCTHQDLC: the FREQUENCY is reported as 1.

Turning to CSWPARCTHQDLC, the FREQUENCY is recorded as 24.

On to CSLPIRCTHQDLC, for which the FREQUENCY was determined as 1.

For the sequence CSYPYRCTHQDLC, the FREQUENCY is 2.

The sequence CSFMYKCTHQDLC showed an FREQUENCY of 1.

Sequence CSFPIRCTHQDLC returned an FREQUENCY of 1.

In turn, CSWPFRCTHQDLC displayed an FREQUENCY of 7.

Turning to CSWLARCTHQDLC, the FREQUENCY turned out to be 8.

As to CSWSARCTHQDLC, the FREQUENCY was 10.

In the case of CSWHARCTHQDLC, the FREQUENCY stood at 1.

In turn, CSFSYKCTHQDLC displayed an FREQUENCY of 1.

CSWPSRCTHQDLC came in with an FREQUENCY of 51.

With CSWPYKCTHQDLC, the FREQUENCY came out at 1.

The sequence CSWQARCTHQDLC had an FREQUENCY of 1.

CSYPWRCTHQDLC: the FREQUENCY amounted to 1.

Consider CSFPFKCTHQDLC, for which the FREQUENCY was 4.
